From publication doi:10.1101/2024.05.14.593897

Molecular target: T1, KBTBD4 (construct for structure determination) (human), Q9NVX7
T1 chain: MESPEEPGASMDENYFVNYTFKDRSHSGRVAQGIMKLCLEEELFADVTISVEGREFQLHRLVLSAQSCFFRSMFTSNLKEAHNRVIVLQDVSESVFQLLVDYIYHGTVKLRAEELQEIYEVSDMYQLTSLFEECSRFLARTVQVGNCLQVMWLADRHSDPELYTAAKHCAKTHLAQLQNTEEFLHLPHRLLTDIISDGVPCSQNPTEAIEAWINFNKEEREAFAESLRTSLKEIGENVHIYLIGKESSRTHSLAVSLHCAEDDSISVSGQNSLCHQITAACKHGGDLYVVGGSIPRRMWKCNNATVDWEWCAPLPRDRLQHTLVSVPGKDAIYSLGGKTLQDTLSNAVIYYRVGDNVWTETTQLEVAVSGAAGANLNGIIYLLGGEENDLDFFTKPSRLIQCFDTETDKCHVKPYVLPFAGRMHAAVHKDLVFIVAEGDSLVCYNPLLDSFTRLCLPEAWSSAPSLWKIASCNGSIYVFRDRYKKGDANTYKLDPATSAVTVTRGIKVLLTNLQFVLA
Test: cryo-EM structure
Conditions: remark: other sources report otherwise

B1: KBTBD4 (construct for structure determination), Q9NVX7-1 1-518 (natural protein)
chain: T1 chain
**Q.** For B1, which stoichiometry N is on record?
**A.** 2
